From patent publication US20060068482A1 (Dana-Farber, published 2006)
Numbering of substitutions follows the chain as printed. Names and notes keep the numbering of the source.

Assays:
[1] = molecular target: T1, p75 MLL test substrate, wild type (MLL aa 2,400 to 2,900, N-terminal Myc tag, C-terminal Flag tag), Q03164
T1 chain: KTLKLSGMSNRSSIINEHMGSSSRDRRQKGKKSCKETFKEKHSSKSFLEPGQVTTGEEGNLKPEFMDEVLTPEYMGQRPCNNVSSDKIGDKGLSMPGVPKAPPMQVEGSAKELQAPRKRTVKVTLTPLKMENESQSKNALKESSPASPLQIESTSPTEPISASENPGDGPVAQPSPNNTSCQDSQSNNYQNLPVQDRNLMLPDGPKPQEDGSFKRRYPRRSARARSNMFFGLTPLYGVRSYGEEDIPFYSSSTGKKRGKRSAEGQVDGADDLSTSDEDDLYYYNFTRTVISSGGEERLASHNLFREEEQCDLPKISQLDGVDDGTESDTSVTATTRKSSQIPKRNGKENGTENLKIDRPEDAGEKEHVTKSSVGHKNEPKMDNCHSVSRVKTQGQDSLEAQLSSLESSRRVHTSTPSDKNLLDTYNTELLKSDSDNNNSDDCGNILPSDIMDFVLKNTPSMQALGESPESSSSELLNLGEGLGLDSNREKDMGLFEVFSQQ

[2] = molecular target: T2, p75 MLL substrate with mutant CS1/CS2 sites (MLL aa 2,400 to 2,900 of noncleavable MLL mt, Myc/Flag tagged), Q03164
T2 chain: T1 chain with D267A, G268A, D319A, G320A

[3] = molecular target: T3, His-tagged 28 kDa alpha subunit of recombinant Taspase1 (human, UniProt Q9H6P5 1-233); experiment: co-purification on a TALON column of N-terminal His-tagged Taspase1 from E. coli, Coomassie-stained SDS-PAGE, Edman degradation of the 22 kDa band
T3 construct: also called 28 kDa N-terminal alpha subunit; 29 kDa alpha; not shown: N-terminal His tag from bacterial expression vector ET15b (Novagen)
T3 sequence: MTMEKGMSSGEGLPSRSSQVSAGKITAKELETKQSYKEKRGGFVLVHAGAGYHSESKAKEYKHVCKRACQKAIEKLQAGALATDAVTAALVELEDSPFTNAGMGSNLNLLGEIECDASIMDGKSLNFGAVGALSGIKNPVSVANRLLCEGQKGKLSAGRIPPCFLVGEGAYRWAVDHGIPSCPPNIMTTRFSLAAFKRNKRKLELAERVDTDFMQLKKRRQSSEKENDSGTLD
Description: Purification of recombinant N-terminal His-tagged Taspase1 yielded an expected 50 kDa product, a His-tagged 28 kDa a subunit, and a co-purified 22 kDa polypeptide (FIG. 5A). […] Similarly when an N-terminal and C-terminal epitope tagged human Taspase1 cDNA was expressed in the human 293 T cell line, the 50 kDa product also appeared to be processed to a 28 kDa N-terminal α subunit and a 22 kDa C-terminal β subunit (FIG. 3D). […] However, the D233A mutant retained some residual enzymatic activity, although it was ˜1000 fold less efficient than the wt enzyme (FIG. 5B, middle panel). […] Thus, this MLL cleaving protease is the first endopeptidase within the Asparaginase_{—}2 family with the novel characteristic of being a threonine aspartase, Taspase1.
His-tagged Taspase1 was expressed in BL21(DE3) cells and purified with a TALON column (Clontech). N-terminal protein sequencing was performed by Molecular Biology Core Facility at the Dana-Farber Cancer Institute.

B1: Recombinant His-tagged Taspase1 D233A mutant (E. coli) (protein)
chain: MTMEKGMSSGEGLPSRSSQVSAGKITAKELETKQSYKEKRGGFVLVHAGAGYHSESKAKEYKHVCKRACQKAIEKLQAGALATDAVTAALVELEDSPFTNAGMGSNLNLLGEIECDASIMDGKSLNFGAVGALSGIKNPVSVANRLLCEGQKGKLSAGRIPPCFLVGEGAYRWAVDHGIPSCPPNIMTTRFSLAAFKRNKRKLELAERVDTDFMQLKKRRQSSEKENDSGTLATVGAVVVDHEGNVAAAVSSGGLALKHPGRVGQAALYGCGCWAENTGAHNPYSTAVSTSGCGEHLVRTILARECSHALQAEDAHQALLETMQNKFISSPFLASEDGVLGGVIVLRSCRCSAEPDSSQNKQTLLVEFLWSHTTESMCVGYMSAQDGKAKTHISRLPPGAVAGQSVAIEGGVCRLESPVN
For B1, the “in vitro cleavage activity of purified recombinant mutant enzyme” value [1] was “˜1000 fold less efficient than the wt enzyme”.

B2: Recombinant His-tagged Taspase1 T234A mutant (E. coli) (protein)
chain: B1 chain with A233D, T234A
In the case of B2, the “in vitro cleavage activity of purified recombinant mutant enzyme” value [1] is reported as “threonine 234 which became the N-terminus of the β subunit is absolutely essential for cleavage activity”.

B3: Recombinant N-terminal His-tagged Taspase1 (rTaspase1), wild type, expressed in E. coli (protein)
chain 1: T3 sequence
chain 2: TVGAVVVDHEGNVAAAVSSGGLALKHPGRVGQAALYGCGCWAENTGAHNPYSTAVSTSGCGEHLVRTILARECSHALQAEDAHQALLETMQNKFISSPFLASEDGVLGGVIVLRSCRCSAEPDSSQNKQTLLVEFLWSHTTESMCVGYMSAQDGKAKTHISRLPPGAVAGQSVAIEGGVCRLESPVN
In the case of B3, the “in vitro cleavage of 35S-methionine labeled p75 MLL substrate” value [2] is reported as “but not the CS1/2 mt substrate”, the “in vitro cleavage of 35S-methionine labeled p75 MLL substrate” value [1] is reported as “Recombinant Taspase1 (rTaspase1) cleaved the wt p75 MLL” and the “in vitro cleavage, enzyme titration and time course (appearance of p47 and p42 fragments)” value [1] is reported as “The p47 fragment appears first, while higher enzyme concentration or more time is needed for the appearance of the p42 fragment”.

B4: 22 kDa beta subunit of recombinant Taspase1 (enzyme)
chain: B3 chain 2
notes: also called co-purified 22 kDa polypeptide; 22 kDa C-terminal beta subunit
B4: binds [3].
